{"source": "paper PMC5356237", "origin": "cited, not measured here", "target": "HER3 (Homo sapiens) (UniProt P21860)", "sequence (P21860 20-1342)": "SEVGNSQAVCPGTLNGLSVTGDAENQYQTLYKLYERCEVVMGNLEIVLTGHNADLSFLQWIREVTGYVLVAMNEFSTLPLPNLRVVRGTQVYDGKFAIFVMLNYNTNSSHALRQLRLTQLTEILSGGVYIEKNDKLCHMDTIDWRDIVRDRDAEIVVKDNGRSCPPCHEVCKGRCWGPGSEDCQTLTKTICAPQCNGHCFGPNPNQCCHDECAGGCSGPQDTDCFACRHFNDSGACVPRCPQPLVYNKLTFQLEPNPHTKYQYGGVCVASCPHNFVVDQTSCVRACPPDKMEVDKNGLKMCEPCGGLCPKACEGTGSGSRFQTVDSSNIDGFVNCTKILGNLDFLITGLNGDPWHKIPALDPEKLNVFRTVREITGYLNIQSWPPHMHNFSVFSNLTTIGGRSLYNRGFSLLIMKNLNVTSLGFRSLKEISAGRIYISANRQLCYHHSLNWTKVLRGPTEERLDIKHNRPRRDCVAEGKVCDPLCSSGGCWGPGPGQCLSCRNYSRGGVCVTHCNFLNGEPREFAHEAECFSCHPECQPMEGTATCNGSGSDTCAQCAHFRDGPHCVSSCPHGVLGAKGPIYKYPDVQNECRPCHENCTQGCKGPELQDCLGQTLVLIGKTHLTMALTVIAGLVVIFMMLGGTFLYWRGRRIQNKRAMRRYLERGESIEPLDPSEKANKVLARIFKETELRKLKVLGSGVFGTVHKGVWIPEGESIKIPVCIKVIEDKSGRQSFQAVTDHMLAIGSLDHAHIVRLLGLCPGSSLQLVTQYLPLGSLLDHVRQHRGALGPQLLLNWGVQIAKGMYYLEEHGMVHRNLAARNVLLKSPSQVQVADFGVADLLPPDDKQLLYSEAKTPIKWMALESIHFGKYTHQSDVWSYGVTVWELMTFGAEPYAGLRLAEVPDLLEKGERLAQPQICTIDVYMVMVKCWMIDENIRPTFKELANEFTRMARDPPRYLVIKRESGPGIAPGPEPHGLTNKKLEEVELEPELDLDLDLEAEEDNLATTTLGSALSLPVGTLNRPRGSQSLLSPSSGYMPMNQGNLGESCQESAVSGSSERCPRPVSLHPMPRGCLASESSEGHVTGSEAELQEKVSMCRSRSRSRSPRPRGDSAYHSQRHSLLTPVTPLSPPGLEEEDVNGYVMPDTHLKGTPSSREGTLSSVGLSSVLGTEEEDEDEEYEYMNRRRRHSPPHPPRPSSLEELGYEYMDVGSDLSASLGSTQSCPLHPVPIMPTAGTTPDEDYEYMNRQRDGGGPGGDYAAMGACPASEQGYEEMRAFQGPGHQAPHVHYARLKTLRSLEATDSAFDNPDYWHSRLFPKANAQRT"}
{"substance": "NRG1b (from UniProt Q02297)", "values": [{"measurement": "Kd", "result": 0.1, "unit": "nM"}]}
